Data: publication PMC6340141

Target: T1, native KCC2 (neuron-specific K+-Cl- cotransporter) (mouse (endogenous in mouse brain)), Q91V14
T1 chain: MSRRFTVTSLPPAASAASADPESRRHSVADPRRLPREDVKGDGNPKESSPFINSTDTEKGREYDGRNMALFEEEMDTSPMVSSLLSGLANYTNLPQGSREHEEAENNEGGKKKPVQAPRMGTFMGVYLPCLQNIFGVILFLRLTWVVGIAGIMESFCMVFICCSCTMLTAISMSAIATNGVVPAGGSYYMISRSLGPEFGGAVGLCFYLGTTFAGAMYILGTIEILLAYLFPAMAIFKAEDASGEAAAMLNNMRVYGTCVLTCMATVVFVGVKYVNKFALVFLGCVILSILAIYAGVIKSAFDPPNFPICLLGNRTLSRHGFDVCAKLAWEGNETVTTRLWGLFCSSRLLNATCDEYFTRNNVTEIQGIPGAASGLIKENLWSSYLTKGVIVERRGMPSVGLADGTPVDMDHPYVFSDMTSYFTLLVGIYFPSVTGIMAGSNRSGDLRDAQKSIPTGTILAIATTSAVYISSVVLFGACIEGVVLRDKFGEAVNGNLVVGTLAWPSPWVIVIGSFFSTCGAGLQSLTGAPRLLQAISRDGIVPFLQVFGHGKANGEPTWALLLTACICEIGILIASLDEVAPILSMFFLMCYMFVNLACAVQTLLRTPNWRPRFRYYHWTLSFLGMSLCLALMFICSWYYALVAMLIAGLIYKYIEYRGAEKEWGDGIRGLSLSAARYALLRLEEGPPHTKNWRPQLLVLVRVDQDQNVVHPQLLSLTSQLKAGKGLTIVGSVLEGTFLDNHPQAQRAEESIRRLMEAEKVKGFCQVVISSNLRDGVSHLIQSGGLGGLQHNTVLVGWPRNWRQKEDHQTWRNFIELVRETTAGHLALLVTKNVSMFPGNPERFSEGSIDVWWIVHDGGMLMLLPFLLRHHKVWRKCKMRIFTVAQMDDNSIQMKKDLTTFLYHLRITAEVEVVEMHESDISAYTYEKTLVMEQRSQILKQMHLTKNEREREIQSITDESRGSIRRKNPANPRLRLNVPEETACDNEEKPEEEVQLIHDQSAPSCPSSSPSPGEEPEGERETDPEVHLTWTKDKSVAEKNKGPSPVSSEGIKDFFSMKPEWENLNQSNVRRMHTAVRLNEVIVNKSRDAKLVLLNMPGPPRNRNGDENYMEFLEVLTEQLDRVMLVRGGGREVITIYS
Assay: native gel or EMSA
Settings: remark: other sources report otherwise

B1: native KCC2 (neuron-specific K+-Cl- cotransporter), Q91V14 1-1138 (natural protein)
chain: MSRRFTVTSLPPAASAASADPESRRHSVADPRRLPREDVKGDGNPKESSPFINSTDTEKGREYDGRNMALFEEEMDTSPMVSSLLSGLANYTNLPQGSREHEEAENNEGGKKKPVQAPRMGTFMGVYLPCLQNIFGVILFLRLTWVVGIAGIMESFCMVFICCSCTMLTAISMSAIATNGVVPAGGSYYMISRSLGPEFGGAVGLCFYLGTTFAGAMYILGTIEILLAYLFPAMAIFKAEDASGEAAAMLNNMRVYGTCVLTCMATVVFVGVKYVNKFALVFLGCVILSILAIYAGVIKSAFDPPNFPICLLGNRTLSRHGFDVCAKLAWEGNETVTTRLWGLFCSSRLLNATCDEYFTRNNVTEIQGIPGAASGLIKENLWSSYLTKGVIVERRGMPSVGLADGTPVDMDHPYVFSDMTSYFTLLVGIYFPSVTGIMAGSNRSGDLRDAQKSIPTGTILAIATTSAVYISSVVLFGACIEGVVLRDKFGEAVNGNLVVGTLAWPSPWVIVIGSFFSTCGAGLQSLTGAPRLLQAISRDGIVPFLQVFGHGKANGEPTWALLLTACICEIGILIASLDEVAPILSMFFLMCYMFVNLACAVQTLLRTPNWRPRFRYYHWTLSFLGMSLCLALMFICSWYYALVAMLIAGLIYKYIEYRGAEKEWGDGIRGLSLSAARYALLRLEEGPPHTKNWRPQLLVLVRVDQDQNVVHPQLLSLTSQLKAGKGLTIVGSVLEGTFLDNHPQAQRAEESIRRLMEAEKVKGFCQVVISSNLRDGVSHLIQSGGLGGLQHNTVLVGWPRNWRQKEDHQTWRNFIELVRETTAGHLALLVTKNVSMFPGNPERFSEGSIDVWWIVHDGGMLMLLPFLLRHHKVWRKCKMRIFTVAQMDDNSIQMKKDLTTFLYHLRITAEVEVVEMHESDISAYTYEKTLVMEQRSQILKQMHLTKNEREREIQSITDESRGSIRRKNPANPRLRLNVPEETACDNEEKPEEEVQLIHDQSAPSCPSSSPSPGEEPEGERETDPEVHLTWTKDKSVAEKNKGPSPVSSEGIKDFFSMKPEWENLNQSNVRRMHTAVRLNEVIVNKSRDAKLVLLNMPGPPRNRNGDENYMEFLEVLTEQLDRVMLVRGGGREVITIYS
stoichiometry N: 4
